Experimental data reported in patent US11472877 (Alector, dated 2022).
One block for each binder: values may come before it.

Legend:
human TREM2 on BWZ cells [1] = target: T1, human TREM2 on BWZ cells (human, UniProt Q9NZC2 19-230); experiment: FACS, BWZ cells
T1 construct: whole, on cells; not tied to the cell line; also called BWZ Human TREM2
T1 sequence (looked up): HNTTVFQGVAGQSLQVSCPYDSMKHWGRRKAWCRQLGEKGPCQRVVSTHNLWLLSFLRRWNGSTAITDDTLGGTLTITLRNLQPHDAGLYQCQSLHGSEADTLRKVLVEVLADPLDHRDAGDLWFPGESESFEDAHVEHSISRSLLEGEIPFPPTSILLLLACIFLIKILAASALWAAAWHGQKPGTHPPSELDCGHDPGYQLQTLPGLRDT

mouse TREM2 on BWZ cells [2] = target: T2, mouse TREM2 on BWZ cells (mouse, UniProt Q99NH8 19-227); experiment: FACS, BWZ cells
T2 construct: whole, on cells; also called BWZ Mouse TREM2
T2 sequence (looked up): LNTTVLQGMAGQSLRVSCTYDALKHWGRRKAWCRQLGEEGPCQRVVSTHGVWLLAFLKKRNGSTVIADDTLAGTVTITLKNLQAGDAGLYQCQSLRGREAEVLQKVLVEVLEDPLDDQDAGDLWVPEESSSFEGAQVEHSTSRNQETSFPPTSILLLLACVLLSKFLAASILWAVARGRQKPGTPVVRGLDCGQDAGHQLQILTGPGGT

human TREM2 on BWZ cells [3] = target: T1, human TREM2 on BWZ cells; experiment: FACS, BWZ human TREM2
mouse TREM2 on BWZ cells [4] = target: T2, mouse TREM2 on BWZ cells; experiment: FACS, BWZ mouse TREM2
mouse TREM1 on CHO cells = target: T3, mouse TREM1 on CHO cells (mouse, UniProt Q9JKE2 21-230); experiment: FACS, CHO mouse TREM1
T3 construct: also called CHO-mT1
T3 sequence: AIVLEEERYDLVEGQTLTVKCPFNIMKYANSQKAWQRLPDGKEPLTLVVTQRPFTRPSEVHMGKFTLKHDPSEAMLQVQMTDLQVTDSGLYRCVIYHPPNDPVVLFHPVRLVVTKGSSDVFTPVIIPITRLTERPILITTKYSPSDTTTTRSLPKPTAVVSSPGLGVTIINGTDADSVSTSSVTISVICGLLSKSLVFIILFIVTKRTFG

- binding result (human TREM2 on BWZ cells [1]): no binding
- binding result (mouse TREM2 on BWZ cells [2]): no binding
- FOB Fold Over Background (human TREM2 on BWZ cells [3]): 1 fold
- FOB Fold Over Background (mouse TREM2 on BWZ cells [4]): 0.9 fold
- FOB Fold Over Background (mouse TREM1 on CHO cells): 1.2 fold
B1: T1-80 (antibody, IgG1, V domains shown)
VH: QVQLVESGGGVVQPGRSLRLSCAASGFTFSSYGMHWVRQAPGKGLEWVALIWYDGSNKYYADSVKGRFTISRDNSKNTLYLQMNSLRAEDTAVYYCARELIVGATGGLTYYYGMDVWGQGTTVTVSS
VL: EIVMTQSPATLSVSPGERATLSCRASQSVGSNLAWYQQKPGQAPRLLIYGASTRATGIPARFSGSGSGTEFTLTISSLQSEDFAVYYCQQDHDRPLTFGGGTKVEIK
notes: huIgG1; also called TI-80; ADI-19159

- binding result (human TREM2 on BWZ cells [1]): no binding
- binding result (mouse TREM2 on BWZ cells [2]): no binding
- FOB Fold Over Background (human TREM2 on BWZ cells [3]): 1.1 fold
- FOB Fold Over Background (mouse TREM2 on BWZ cells [4]): 1.2 fold
- FOB Fold Over Background (mouse TREM1 on CHO cells): 3.1 fold
B2: T1-54 (antibody, IgG1, V domains shown)
VH: QVQLVQSGAEVKKPGSSVKVSCKASGGTFSSYAISWVRQAPGQGLEWMGGIIPIFGTANYAQKFQGRVTITADESTSTAYMELSSLRSEDTAVYYCARHWYALGSFDIWGQGTMVTVSS
VL: EIVMTQSPATLSLSPGERATLSCRASQSVSSYLAWYQQKPGQAPRLLIYDSSNRATGIPARFSGSGSGTDFTLTISSLEPEDFAVYYCQQHDVWPITFGGGTKVEIK
notes: huIgG1; also called TI-54; ADI-19129
